Source: patent publication US5556750

System: MutY (Escherichia coli)
Conditions: A.G to C-G correction by complementation of mutS mutY extract; fraction V

A.G mismatch heteroduplex
activity: 480000 units/mg
